Data as given in patent US20050004353A1 (Amgen, published 2005).
Where a chain is given by its changes, count along the chain named. Several values for one entry are separate records, joined by “and”; a condition that tells them apart may be missing. Equal entries are not always repeated.

Experiments:
[1] = molecular target: T1, human interferon-gamma (IFN-γ) (human, UniProt P01579 24-161); assay: cell-based or functional assay
T1 sequence (looked up): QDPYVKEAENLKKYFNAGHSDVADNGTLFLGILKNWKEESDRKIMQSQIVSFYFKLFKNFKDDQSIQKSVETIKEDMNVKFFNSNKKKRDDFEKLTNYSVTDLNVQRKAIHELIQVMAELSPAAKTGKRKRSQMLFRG

[2] = molecular target: T1, human interferon-gamma (IFN-γ); assay: ELISA on plates coated with recombinant IFN-γ, antibody purified from hybridoma supernatant
huIFN-γI126 = molecular target: T2, huIFN-γI126 (human, UniProt P01579 24-161); assay: cell-based or functional assay
T2 sequence (looked up): T1 sequence (looked up) with T126I

huIFN-γS103 = molecular target: T3, huIFN-γS103 (human, UniProt P01579 24-161); assay: cell-based or functional assay
T3 sequence (looked up): T1 sequence (looked up) with L103S

huIFN-γD19 = molecular target: T4, huIFN-γD19 (human, UniProt P01579 24-161); assay: cell-based or functional assay
T4 sequence (looked up): T1 sequence (looked up) with H19D

huIFN-γD31 = molecular target: T5, huIFN-γD31 (human, UniProt P01579 24-161); assay: cell-based or functional assay
T5 sequence (looked up): T1 sequence (looked up) with G31D

huIFN-γV110 = molecular target: T6, huIFN-γV110 (human, UniProt P01579 24-161); assay: cell-based or functional assay
T6 sequence (looked up): T1 sequence (looked up) with I110V

huIFN-γR34 = molecular target: T7, huIFN-γR34 (human, UniProt P01579 24-161); assay: cell-based or functional assay
T7 sequence (looked up): T1 sequence (looked up) with K34R

huIFN-γR65 = molecular target: T8, huIFN-γR65 (human, UniProt P01579 24-161); assay: cell-based or functional assay
T8 sequence (looked up): T1 sequence (looked up) with S65R

huIFN-γI77 = molecular target: T9, huIFN-γI77 (human, UniProt P01579 24-161); assay: cell-based or functional assay
T9 sequence (looked up): T1 sequence (looked up) with M77I

huIFN-γP20 = molecular target: T10, huIFN-γP20 (human, UniProt P01579 24-161); assay: cell-based or functional assay
T10 sequence (looked up): T1 sequence (looked up) with S20P

cynomolgus monkey IFN-γ = molecular target: T11, cynomolgus monkey IFN-γ (cynomolgus monkey, UniProt P63309 24-165); assay: cell-based or functional assay
T11 sequence (looked up): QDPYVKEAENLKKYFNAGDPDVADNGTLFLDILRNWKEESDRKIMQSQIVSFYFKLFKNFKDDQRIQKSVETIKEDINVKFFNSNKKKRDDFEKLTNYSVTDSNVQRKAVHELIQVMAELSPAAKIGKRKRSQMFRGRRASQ

[3] = molecular target: T1, human interferon-gamma (IFN-γ); assay: equilibrium-binding assay in solution, free antibody captured on IFN-γ coupled beads, KinExA
Protocol: Binding kinetics for several of the antibodies to IFN-γ were measured by BIAcore analysis. […] Accordingly, an equilibrium-binding assay was developed and used. A fixed amount of antibody was incubated with various concentrations of IFN-γ for greater than 5 hours in order to reach equilibrium and then contacted with IFN-γ coupled beads for a very brief time, and the amount of free antibody that bound to the beads was measured in a KINEXA™ machine (Sapidyne Instruments Inc., Boise, Id.), a fluorescence based immunoassay instrument. The lowest equilibrium dissociation constant obtained, ˜24 pM, was with the 1119 antibody.

B1: 1121 anti-IFN-γ antibody (antibody, V domains shown)
VH: EVQLVQSGAEVKKPGESLKISCKGSGYNFTSYWIGWVRQMPGKGLEWMGIIYPGDSDTRYSPSFQGQVTISADKSISTAYLQWSSLKASDTAMYYCGSGSYWYFDLWGRGTLVTVSS
VL: EIVLTQSPGTLSLSPGERATLSCRASQSVSSSYLAWYQQKPGQAPRLLIYGASSRATGIPDRFSGSGSGTDFTLTISRLEPEDFAVYYCQRSGGSSFTFGPGTKVDIKR
[1]
  IC50, A549 bioassay (inhibition of the anti-proliferative effect of IFN-γ, 30 pM IFN-γ): 46 pM
  IC50, THP-1/HLA DR bioassay (21 pM IFN-γ): 60 pM

B2: 1121* anti-IFN-γ antibody (antibody, human IgG1, kappa, V domains shown)
VH: B1 VH
VL: EIVLTQSPGTLSLSPGERATLSCRASQSIISSYLAWYQQKPGQTPRLLIYGVSSRATGIPDRFSGSGSGTDFTLTITRLEPEDFAVYYCQQYGNSFMYTFGQGTKLEIKR
notes: the ELISA used antibody purified from hybridoma supernatant
[2]
  binding result: binds

B3: 1119 anti-IFN-γ antibody (antibody, human IgG1, kappa, V domains shown)
VH: B1 VH with W47L, W102F
VL: B1 VL
notes: also called 1119 antibody; 1119 mAb
huIFN-γI126
  % Neutralization by 1119 (A549 bioassay): 109%
huIFN-γS103
  % Neutralization by 1119 (A549 bioassay): 102%
huIFN-γD19
  % Neutralization by 1119 (A549 bioassay): 0%
huIFN-γD31
  % Neutralization by 1119 (A549 bioassay): 103%
huIFN-γV110
  % Neutralization by 1119 (A549 bioassay): 103%
huIFN-γR34
  % Neutralization by 1119 (A549 bioassay): 109%
huIFN-γR65
  % Neutralization by 1119 (A549 bioassay): 109%
huIFN-γI77
  % Neutralization by 1119 (A549 bioassay): 108%
huIFN-γP20
  % Neutralization by 1119 (A549 bioassay): 0%
Cynomolgus monkey IFN-γ
  % Neutralization by 1119 (A549 bioassay): 0%
[1]
  IC50, A549 bioassay (inhibition of the anti-proliferative effect of IFN-γ, 30 pM IFN-γ): 14 pM
  IC50, THP-1/HLA DR bioassay (21 pM IFN-γ): 14 pM
  IC50, human whole blood bioassay (IFN-γ-induced IP-10 production), one of two donors: 0.017 nM and 0.014 nM
[3]
  Kd: ~0.024 nM

B4: 1118 anti-IFN-γ antibody (antibody, V domains shown)
VH: B1 VH with N28S
VL: B1 VL with Y33S
[1]
  IC50, A549 bioassay (inhibition of the anti-proliferative effect of IFN-γ, 30 pM IFN-γ): 97 pM
  IC50, THP-1/HLA DR bioassay (21 pM IFN-γ): 86 pM
